Experimental findings from patent US12497462 (IMMUNITYBIO, dated 2025) are described below.

Substitutions are numbered along the chain they refer to.

For test [1], the target named is T1, Human CD26-Fc fusion protein (human).
T1 construct: also called CD26/beads
Description: ELISA, CD26-Fc coated, purified IgG1 kappa antibody in 3-fold steps, goat anti-human kappa-HRP/ABTS. In general terms: An ELISA detects its analyte on a solid surface through an enzyme-linked reagent.

For test [2], the target named is goat anti-human IgG. In words: ELISA, goat anti-human IgG coated (control plate), goat anti-human kappa-HRP/ABTS.
For test [3], the target named is T2, Human CD26 on transfected CHO cells (human, UniProt P27487 1-766).
T2 construct: whole, on cells; also called CHO26; CD26 positive CHO cells
T2 sequence (P27487 whole entry): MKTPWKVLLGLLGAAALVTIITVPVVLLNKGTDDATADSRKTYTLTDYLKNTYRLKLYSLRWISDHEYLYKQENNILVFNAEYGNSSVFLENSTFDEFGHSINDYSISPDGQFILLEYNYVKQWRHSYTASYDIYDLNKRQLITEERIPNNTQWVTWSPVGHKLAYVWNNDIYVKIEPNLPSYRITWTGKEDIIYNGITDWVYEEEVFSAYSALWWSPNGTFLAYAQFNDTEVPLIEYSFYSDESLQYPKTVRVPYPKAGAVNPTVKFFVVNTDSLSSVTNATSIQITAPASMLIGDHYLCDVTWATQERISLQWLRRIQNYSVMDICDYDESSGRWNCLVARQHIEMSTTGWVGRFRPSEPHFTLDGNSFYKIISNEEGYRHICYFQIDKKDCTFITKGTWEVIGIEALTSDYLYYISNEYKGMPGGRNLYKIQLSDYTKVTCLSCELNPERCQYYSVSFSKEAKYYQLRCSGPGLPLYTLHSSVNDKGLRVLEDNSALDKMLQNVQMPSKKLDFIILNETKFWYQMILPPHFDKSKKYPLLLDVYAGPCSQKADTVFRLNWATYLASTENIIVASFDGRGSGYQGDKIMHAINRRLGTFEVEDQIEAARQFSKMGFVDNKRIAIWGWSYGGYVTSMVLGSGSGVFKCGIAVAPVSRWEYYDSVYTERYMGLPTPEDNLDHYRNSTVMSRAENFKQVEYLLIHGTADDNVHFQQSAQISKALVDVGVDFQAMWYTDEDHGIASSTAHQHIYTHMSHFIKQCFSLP
Description: flow cytometry on human CD26-transfected CHO cells, antibody 50 nM, goat anti-human IgG-PE. A general note: A flow cytometer gives signals particle by particle.

In test [4] the target is T1, Human CD26-Fc fusion protein. Description: ELISA, CD26-Fc coated, purified IgG1 kappa antibody, goat anti-human kappa-HRP/ABTS.
Test [5] shares this target. In words: competition ELISA on coated CD26-Fc (5 µg/mL): ADA is varied and the blocked molecule is biotinylated CD26Ab-01D at 5 nM, read with SAHRP/ABTS.

T1 sequence (chain, as listed by the source): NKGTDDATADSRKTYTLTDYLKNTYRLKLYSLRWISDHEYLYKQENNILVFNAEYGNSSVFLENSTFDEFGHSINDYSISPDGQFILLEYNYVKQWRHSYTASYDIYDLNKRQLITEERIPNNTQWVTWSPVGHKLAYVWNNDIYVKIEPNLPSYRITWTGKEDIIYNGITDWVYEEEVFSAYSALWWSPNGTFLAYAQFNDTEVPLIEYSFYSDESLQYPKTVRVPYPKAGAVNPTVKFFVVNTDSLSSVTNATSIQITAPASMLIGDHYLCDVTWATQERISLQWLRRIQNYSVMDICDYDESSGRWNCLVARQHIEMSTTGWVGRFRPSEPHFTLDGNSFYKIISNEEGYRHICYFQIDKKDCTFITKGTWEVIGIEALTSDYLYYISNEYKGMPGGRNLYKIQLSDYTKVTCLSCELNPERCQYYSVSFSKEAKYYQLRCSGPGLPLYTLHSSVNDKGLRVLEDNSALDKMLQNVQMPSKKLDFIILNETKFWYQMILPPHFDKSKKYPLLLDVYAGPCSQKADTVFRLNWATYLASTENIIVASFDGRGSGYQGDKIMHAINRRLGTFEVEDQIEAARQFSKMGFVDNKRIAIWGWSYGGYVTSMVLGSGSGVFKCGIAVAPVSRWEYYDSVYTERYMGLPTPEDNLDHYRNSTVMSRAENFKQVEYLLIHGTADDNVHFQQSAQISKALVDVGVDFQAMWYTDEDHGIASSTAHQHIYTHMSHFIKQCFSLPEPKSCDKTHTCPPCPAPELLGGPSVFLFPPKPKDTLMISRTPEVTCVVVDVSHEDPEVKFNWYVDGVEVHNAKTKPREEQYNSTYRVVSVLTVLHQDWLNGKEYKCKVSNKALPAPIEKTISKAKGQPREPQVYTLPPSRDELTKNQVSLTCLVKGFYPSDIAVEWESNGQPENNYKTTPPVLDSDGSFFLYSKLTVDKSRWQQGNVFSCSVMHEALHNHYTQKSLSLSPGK

B1: CD26Ab-04A anti-CD26 IgG1 kappa monoclonal antibody (antibody, V domains shown)
VH: EVQLVESGGGLVQPGGSLRLSCAASGFAINNYSIHWVRQAPGKGLEWVASIWPYGGFTSYADSVKGRFTISADTSKNTAYLQMNSLRAEDTAVYYCARFFSSYGDMDYWGQGTLVTVSS
VL: DIQMTQSPSSLSASVGDRVTITCRASQDVSGGVAWYQQKPGKAPKLLIYGTSGLYSGVPSRFSGSGSGTDFTLTISSLQPEDFATYYCQQGGDWPITFGQGTKVEIKR
notes: Used biotinylated in some assays; also called CD26-04A
The EC50 (read off the curve) is the concentration giving half of the maximal effect. Read a high EC50 (read off the curve) as weaker potency. In the case of B1, the “EC50 (read off the curve)” value in test [1] is roughly 1 nM; in test [2], roughly 0.4 nM. Also, in test [3], the MFI came to 4360.

B2: CD26Ab-01D anti-CD26 IgG1 kappa monoclonal antibody (antibody, V domains shown)
VH: EVQLVESGGGLVQPGGSLRLSCAASGFTINDSYIHWVRQAPGKGLEWVAWIWPYGGFTYYADSVKGRFTISADTSKNTAYLQMNSLRAEDTAVYYCARFLGSSSIMDYWGQGTLVTVSS
VL: DIQMTQSPSSLSASVGDRVTITCRASQDVNSNVAWYQQKPGKAPKLLIFGSGGLYSGVPSRFSGSGSGTDFTLTISSLQPEDFATYYCQQYSSYPLTFGQGTKVETKR
As to B2, in test [1], the binding result is “binds”. Moreover, the MFI in test [3] is 1700.

B3: CD26Ab-10B anti-CD26 IgG1 kappa monoclonal antibody (antibody, V domains shown)
VH: B1 VH with A28T, N30S, N31D, F100H, Y103S
VL: B2 VL with N30W, S31G, N32Y, G50A, G53A, S92F, S93N, Y94W, L96I, T106I
notes: Very low production; not biotinylated
Regarding B3, in test [4], the binding result is “no binding (tested: 500000 pM)”. In test [3], this molecule gave an MFI of 105.

B4: Human adenosine deaminase (ADA) (enzyme, UniProt P00813 1-363, looked up)
chain: MAQTPAFDKPKVELHVHLDGSIKPETILYYGRRRGIALPANTAEGLLNVIGMDKPLTLPDFLAKFDYYMPAIAGCREAIKRIAYEFVEMKAKEGVVYVEVRYSPHLLANSKVEPIPWNQAEGDLTPDEVVALVGQGLQEGERDFGVKARSILCCMRHQPNWSPKVVELCKKYQQQTVVAIDLAGDETIPGSSLLPGHVQAYQEAVKSGIHRTVHAGEVGSAEVVKEAVDILKTERLGHGYHTLEDQALYNRLRQENMHFEICPWSSYLTGAWKPDTEHAVIRLKNDQANYSLNTDDPLIFKSTLDTDYQMTKRDMGFTEEEFKRLNINAAKSSFLPEDEKRELLDLLYKAYGMPPSASAGQNL
notes: Bought reagent; also called Human ADA (R&D systems)
In the case of B4, the “IC50 (read off the curve)” value in test [5] is roughly 0.01 nM.
